Measured values taken from patent US6518063.

Target: OSF2/CBFA1b (lacks 22 aa of exon 8) deletion of 22 aa encoded by exon 8 (Homo sapiens) (UniProt Q13950)
Assay: cell_activity
Conditions: p6OSE2-luc, F9 cells

OSF2/CBFA1b (lacks 22 aa of exon 8) deletion of 22 aa encoded by exon 8 (Homo sapiens), sequence (Q13950 whole entry, stated change not applied): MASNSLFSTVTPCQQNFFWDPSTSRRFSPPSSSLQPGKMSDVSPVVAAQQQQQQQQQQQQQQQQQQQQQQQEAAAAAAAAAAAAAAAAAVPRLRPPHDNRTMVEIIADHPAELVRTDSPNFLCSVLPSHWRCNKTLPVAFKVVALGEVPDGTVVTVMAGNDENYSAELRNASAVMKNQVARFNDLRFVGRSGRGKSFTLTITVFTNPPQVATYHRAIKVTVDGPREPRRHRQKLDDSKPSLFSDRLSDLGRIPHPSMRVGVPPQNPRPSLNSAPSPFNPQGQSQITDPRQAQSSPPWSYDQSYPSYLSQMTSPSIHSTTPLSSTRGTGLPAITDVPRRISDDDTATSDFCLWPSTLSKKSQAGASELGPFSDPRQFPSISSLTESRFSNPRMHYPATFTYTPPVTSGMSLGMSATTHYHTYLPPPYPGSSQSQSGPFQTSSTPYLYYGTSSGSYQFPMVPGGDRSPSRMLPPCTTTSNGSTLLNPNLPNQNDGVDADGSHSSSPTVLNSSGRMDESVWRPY

Sequence: AGCTGCAATCACCAACCACAGCA (double strand) [Osteocalcin (OG2) OSE2]
- activity (fold activation): 40
